# T1: His-tagged Stx 2B-subunit (wild type) (enterohemorrhagic Escherichia coli O157:H7), P09386
# T1 chain: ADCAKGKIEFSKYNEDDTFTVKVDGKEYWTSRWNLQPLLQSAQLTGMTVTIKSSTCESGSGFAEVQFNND
# B1: (Met-Ala-FRRNRRN-Ala-AHA-)4-3Lys (peptide)
# peptide: MAFRRNRRNA
# modifications: not checked
# B2: (Met-Ala-PPPRRRR-Ala-AHA-)4-3Lys (peptide)
# peptide: MAPPPRRRRA
# modifications: not checked
# B3: (Met-Ala-PPRRNRR-Ala-AHA-)4-3Lys (peptide)
# peptide: MAPPRRNRRA
# modifications: not checked
# B4: (Met-Ala-KRRNPRR-Ala-AHA-)4-3Lys (peptide)
# peptide: MAKRRNPRRA
# modifications: not checked
# Target: T1, His-tagged Stx 2B-subunit (wild type) …
row,Binder,RUmax [AU]
1,B1,1490
2,B2,1250
3,B3,1350
4,B4,1290
